# B1: 6YSE (parent)
# chain: HERALMVNRLQKLTRMLRVHPDPKWKQEQQELIKRLK
# Variants of: B1
# Assay: folding stability dG (cDNA display proteolysis); higher = more stable
# Conditions: PBS, room temperature
row,Variant,folding stability dG
1,M16S,-0.421 kcal/mol
2,M16L,1.35 kcal/mol
3,M16K,0.733 kcal/mol
4,M16H,-0.229 kcal/mol
5,M16Q,-0.015 kcal/mol
6,M16W,1.26 kcal/mol
7,M16R,0.261 kcal/mol
8,M16A,0.312 kcal/mol
9,M16I,0.699 kcal/mol
10,M16Y,0.489 kcal/mol
11,M16F,0.018 kcal/mol
12,D22W,0.947 kcal/mol
13,D22I,0.677 kcal/mol
14,D22K,1.23 kcal/mol
15,D22H,1.3 kcal/mol
16,D22T,1.13 kcal/mol
17,D22V,0.67 kcal/mol
18,D22F,1.07 kcal/mol
19,D22R,1.06 kcal/mol
20,D22S,1.09 kcal/mol
21,D22M,0.675 kcal/mol
22,D22L,1.22 kcal/mol
23,D22N,1.67 kcal/mol
24,D22A,0.299 kcal/mol

row,Variant,folding stability dG
1,D22Y,1.14 kcal/mol
2,D22G,0.117 kcal/mol
3,D22E,0.749 kcal/mol
4,R9M,0.818 kcal/mol
5,R9W,0.91 kcal/mol
6,R9T,-0.04 kcal/mol
7,R9S,-0.602 kcal/mol
8,R9C,1.19 kcal/mol
9,R9I,0.734 kcal/mol
10,R9K,0.551 kcal/mol
11,R9H,0.157 kcal/mol
12,R9V,-0.415 kcal/mol
13,R9A,-0.164 kcal/mol
14,R9E,0.136 kcal/mol
15,R9Q,0.621 kcal/mol
16,R9G,-0.612 kcal/mol
17,R9F,0.77 kcal/mol
18,R9Y,0.605 kcal/mol
19,R9L,0.938 kcal/mol
20,L13C,-0.58 kcal/mol
21,L13V,0.655 kcal/mol
22,L13I,1.07 kcal/mol
23,N8Y,1.38 kcal/mol
24,N8T,1.92 kcal/mol

row,Variant,folding stability dG
1,N8V,1.77 kcal/mol
2,N8R,2.01 kcal/mol
3,N8S,1.67 kcal/mol
4,N8M,1.67 kcal/mol
5,N8W,1.34 kcal/mol
6,N8Q,2.12 kcal/mol
7,T14G,0.779 kcal/mol
8,T14L,1.13 kcal/mol
9,T14W,0.988 kcal/mol
10,T14K,1.34 kcal/mol
11,T14Y,1.15 kcal/mol
12,T14S,1.03 kcal/mol
13,T14M,1.21 kcal/mol
14,T14A,1.32 kcal/mol
15,T14N,1.39 kcal/mol
16,T14E,1.19 kcal/mol
17,T14D,0.505 kcal/mol
18,T14I,1.35 kcal/mol
19,T14R,1.3 kcal/mol
20,T14H,0.917 kcal/mol
21,T14F,0.771 kcal/mol
22,T14V,0.832 kcal/mol
23,T14Q,0.979 kcal/mol
24,Q29C,1.52 kcal/mol

row,Variant,folding stability dG
1,Q29D,-0.859 kcal/mol
2,Q29A,1.48 kcal/mol
3,Q29R,1.47 kcal/mol
4,Q29I,1.69 kcal/mol
5,Q29V,1.68 kcal/mol
6,Q29E,0.805 kcal/mol
7,Q29T,0.863 kcal/mol
8,Q29Y,1.7 kcal/mol
9,Q29F,1.53 kcal/mol
10,Q29H,0.663 kcal/mol
11,Q29M,1.72 kcal/mol
12,Q29L,1.85 kcal/mol
13,Q29W,1.47 kcal/mol
14,Q29S,0.65 kcal/mol
15,E28W,0.824 kcal/mol
16,E28F,0.366 kcal/mol
17,E28A,0.638 kcal/mol
18,E28N,-0.895 kcal/mol
19,E28D,-0.285 kcal/mol
20,E28V,0.452 kcal/mol
21,E28R,-0.089 kcal/mol
22,E28S,-0.485 kcal/mol
23,E28I,1.05 kcal/mol
24,E28L,0.849 kcal/mol

row,Variant,folding stability dG
1,E28M,0.854 kcal/mol
2,E28Y,0.612 kcal/mol
3,E28T,-0.079 kcal/mol
4,E28Q,0.317 kcal/mol
5,R18E,0.715 kcal/mol
6,R18Q,1.19 kcal/mol
7,R18G,0.577 kcal/mol
8,R18Y,0.492 kcal/mol
9,R18L,1.2 kcal/mol
10,R18N,0.669 kcal/mol
11,R18A,1.45 kcal/mol
12,R18S,0.989 kcal/mol
13,R18D,0.512 kcal/mol
14,R18I,0.881 kcal/mol
15,R18H,0.59 kcal/mol
16,R18T,0.657 kcal/mol
17,R18F,0.738 kcal/mol
18,R18M,1.29 kcal/mol
19,R18K,1.36 kcal/mol
20,R18W,0.417 kcal/mol
21,R18V,0.181 kcal/mol
22,Q11F,1.23 kcal/mol
23,Q11M,1.73 kcal/mol
24,Q11K,2.12 kcal/mol

row,Variant,folding stability dG
1,Q11E,1.08 kcal/mol
2,Q11V,1.48 kcal/mol
3,Q11G,0.69 kcal/mol
4,Q11H,1.38 kcal/mol
5,Q11S,1.1 kcal/mol
6,Q11I,2.12 kcal/mol
7,Q11W,1.5 kcal/mol
8,Q11N,1.34 kcal/mol
9,Q11R,2.14 kcal/mol
10,Q11Y,1.41 kcal/mol
11,Q11L,1.69 kcal/mol
12,Q11T,1.09 kcal/mol
13,Q11D,0.958 kcal/mol
14,Q11A,1.54 kcal/mol
15,Q11C,2.24 kcal/mol
16,H20T,1.13 kcal/mol
17,H20L,0.97 kcal/mol
18,H20E,0.232 kcal/mol
19,H20D,1.3 kcal/mol
20,H20K,1.57 kcal/mol
21,H20Y,1.47 kcal/mol
22,H20N,1.26 kcal/mol
23,H20F,1.39 kcal/mol
24,H20S,1.26 kcal/mol

row,Variant,folding stability dG
1,H20A,0.952 kcal/mol
2,H20R,1.19 kcal/mol
3,H20I,1.06 kcal/mol
4,H20Q,0.946 kcal/mol
5,H20V,0.774 kcal/mol
6,H20G,-0.186 kcal/mol
7,H20M,1.06 kcal/mol
8,H20W,1.39 kcal/mol
9,L17R,-0.68 kcal/mol
10,L17Q,-0.895 kcal/mol
11,L17A,-0.037 kcal/mol
12,L17S,-0.127 kcal/mol
13,L17C,-0.743 kcal/mol
14,L17V,-0.191 kcal/mol
15,L17M,0.852 kcal/mol
16,L17I,1.09 kcal/mol
17,L17N,0.006 kcal/mol
18,L17Y,0.234 kcal/mol
19,Q27A,1.6 kcal/mol
20,Q27M,1.38 kcal/mol
21,Q27T,1.01 kcal/mol
22,Q27I,1.22 kcal/mol
23,Q27K,1.46 kcal/mol
24,Q27V,0.985 kcal/mol

row,Variant,folding stability dG
1,Q27E,1.42 kcal/mol
2,Q27H,1.21 kcal/mol
3,Q27G,0.59 kcal/mol
4,Q27R,1.23 kcal/mol
5,Q27Y,0.821 kcal/mol
6,Q27F,1.14 kcal/mol
7,Q27S,1.04 kcal/mol
8,Q27L,1.62 kcal/mol
9,Q27W,0.767 kcal/mol
10,Q27N,1.09 kcal/mol
11,Q27D,0.957 kcal/mol
12,R15E,1.42 kcal/mol
13,R15M,1.33 kcal/mol
14,R15Y,0.918 kcal/mol
15,R15V,0.95 kcal/mol
16,R15Q,1.48 kcal/mol
17,R15N,1 kcal/mol
18,R15L,1.31 kcal/mol
19,R15D,1.01 kcal/mol
20,R15T,0.631 kcal/mol
21,R15F,0.829 kcal/mol
22,R15G,0.365 kcal/mol
23,R15I,1.14 kcal/mol
24,R15W,0.914 kcal/mol

row,Variant,folding stability dG
1,R15A,1.32 kcal/mol
2,R15H,1.12 kcal/mol
3,L10F,-0.248 kcal/mol
4,L10Y,0.292 kcal/mol
5,L10W,-0.405 kcal/mol
6,L10M,-0.327 kcal/mol
7,L10V,0.163 kcal/mol
8,L10I,0.954 kcal/mol
9,P23H,0.269 kcal/mol
10,P23Q,0.666 kcal/mol
11,P23V,0.701 kcal/mol
12,P23G,0.641 kcal/mol
13,P23E,0.721 kcal/mol
14,P23R,0.598 kcal/mol
15,P23A,1.03 kcal/mol
16,P23W,0.75 kcal/mol
17,P23K,0.967 kcal/mol
18,P23N,0.238 kcal/mol
19,P23M,0.09 kcal/mol
20,P23F,0.718 kcal/mol
21,P23L,0.804 kcal/mol
22,P23Y,0.554 kcal/mol
23,P23D,0.676 kcal/mol
24,P23I,0.608 kcal/mol

row,Variant,folding stability dG
1,P23T,0.669 kcal/mol
2,P23S,0.806 kcal/mol
3,V19T,1.37 kcal/mol
4,V19E,1.19 kcal/mol
5,V19M,1.37 kcal/mol
6,V19I,1.51 kcal/mol
7,V19W,1.21 kcal/mol
8,V19D,1.13 kcal/mol
9,V19G,1.34 kcal/mol
10,V19K,1.55 kcal/mol
11,V19L,1.48 kcal/mol
12,V19Y,1.57 kcal/mol
13,V19N,1.44 kcal/mol
14,V19A,1.21 kcal/mol
15,V19S,1.23 kcal/mol
16,V19Q,1.41 kcal/mol
17,V19H,1.38 kcal/mol
18,V19R,1.55 kcal/mol
19,V19F,1.51 kcal/mol
20,K26V,1.16 kcal/mol
21,K26S,0.461 kcal/mol
22,K26T,0.715 kcal/mol
23,K26G,-0.052 kcal/mol
24,K26N,0.211 kcal/mol

row,Variant,folding stability dG
1,K26Q,1.03 kcal/mol
2,K26F,1.53 kcal/mol
3,K26A,0.85 kcal/mol
4,K26Y,1.17 kcal/mol
5,K26M,1.29 kcal/mol
6,K26W,0.964 kcal/mol
7,K26D,-0.129 kcal/mol
8,K26I,1.4 kcal/mol
9,K26E,1.14 kcal/mol
10,K26L,1.45 kcal/mol
11,K26C,0.732 kcal/mol
12,K26R,1.32 kcal/mol
13,K26H,1.01 kcal/mol
14,K24E,1.01 kcal/mol
15,K24G,0.85 kcal/mol
16,K24M,1.09 kcal/mol
17,K24Q,1.22 kcal/mol
18,K24V,1.31 kcal/mol
19,K24A,1.24 kcal/mol
20,K24T,1.3 kcal/mol
21,K24H,0.889 kcal/mol
22,K24L,1.11 kcal/mol
23,K24Y,1.13 kcal/mol
24,K24S,0.97 kcal/mol

row,Variant,folding stability dG
1,K24I,1.32 kcal/mol
2,K24F,0.828 kcal/mol
3,K24R,1.34 kcal/mol
4,K24W,0.63 kcal/mol
5,K24N,0.982 kcal/mol
6,K24D,0.986 kcal/mol
7,K12F,2.26 kcal/mol
8,K12D,1 kcal/mol
9,K12I,1.43 kcal/mol
10,K12H,1.37 kcal/mol
11,K12N,1.01 kcal/mol
12,K12Y,2.31 kcal/mol
13,K12Q,1.71 kcal/mol
14,K12M,1.49 kcal/mol
15,K12T,1.3 kcal/mol
16,K12R,1.3 kcal/mol
17,K12A,1.36 kcal/mol
18,K12W,2.78 kcal/mol
19,K12S,0.811 kcal/mol
20,K12V,1.43 kcal/mol
21,K12L,1.53 kcal/mol
22,K12G,-0.272 kcal/mol
23,Q30L,1.52 kcal/mol
24,Q30N,0.979 kcal/mol

row,Variant,folding stability dG
1,Q30C,1.75 kcal/mol
2,Q30I,1.37 kcal/mol
3,Q30G,0.68 kcal/mol
4,Q30R,1.21 kcal/mol
5,Q30H,0.978 kcal/mol
6,Q30F,0.851 kcal/mol
7,Q30K,0.968 kcal/mol
8,Q30M,1.42 kcal/mol
9,Q30D,0.872 kcal/mol
10,Q30E,1.38 kcal/mol
11,Q30A,1.07 kcal/mol
12,Q30S,1.11 kcal/mol
13,P21Y,2.16 kcal/mol
14,P21H,1.57 kcal/mol
15,P21Q,1.36 kcal/mol
16,P21L,0.688 kcal/mol
17,P21C,0.966 kcal/mol
18,P21M,1.13 kcal/mol
19,P21K,1.04 kcal/mol
20,P21N,1.51 kcal/mol
21,P21V,0.805 kcal/mol
22,P21D,1.37 kcal/mol
23,P21R,0.878 kcal/mol
24,P21W,2.02 kcal/mol

row,Variant,folding stability dG
1,P21E,1.09 kcal/mol
2,P21G,0.843 kcal/mol
3,P21T,0.908 kcal/mol
4,P21A,1.18 kcal/mol
5,P21F,2.15 kcal/mol
6,P21I,0.664 kcal/mol
7,W25N,0.386 kcal/mol
8,W25D,0.337 kcal/mol
9,W25R,0.719 kcal/mol
10,W25Q,0.755 kcal/mol
11,W25Y,1.32 kcal/mol
12,W25K,0.636 kcal/mol
13,W25G,0.387 kcal/mol
14,W25L,1.97 kcal/mol
15,W25S,0.206 kcal/mol
16,W25I,1.62 kcal/mol
17,W25H,0.686 kcal/mol
18,W25V,1.22 kcal/mol
19,W25M,1.71 kcal/mol
20,W25T,0.731 kcal/mol
21,W25F,1.25 kcal/mol
22,W25A,0.973 kcal/mol
